This is an account of results in IntAct's records for PubMed 18923418.

B1: Ras GTPase-activating-like protein IQG1 (Candida albicans (strain SC5314 / ATCC MYA-2876)), Q5AH02 (parent)
chain: MAIGNIAARYLSSLEETDTTATTTTTTTSNVLQPSNRLNSPTKFNRKSLDNNSQDLDALARALNITPSKPETPTSISKGSATSLLRTKFESPSATVSSFKSTSSSNGVSPTKKNHFVEITSDETPSWANKNYKDILNKSPTKFNTQSNVHTPLKQLNQPIGTPSSSSLSPAKNASKSSPGYEYLCRIEAIKQWLESVLQEQITQSASQLISYIRNGIHLAKLANVVLPTSKPVFLNDSKLQFKHTENINRFFQLLDFFNMPDLFRFELTDLYDAKNVPKVWFCLHALSYILHKQDPSYPAMNNLVGKVDFSADDIRTANRALVNSPLPNFSSADTGEGKSDTSNNNSSTTSATAAFMDKVTSPVKKTPSPLKRPQQLQKKQLELVEDNKPELTQDSSGLSKISRDDPFTDRVDLAPPSTSNAKLELHTPPSKSLEFKIKSPIIDLSHRDSDYYTPELESHLPNIIKFQSLARGAVFRYLMFVDRILLKSYQDEFTNLFAIIRGNKARRKTVHKHRDELRLYSFEIIELQSIIRKNFVINKKPNFTSITNDVETVELQSLIRGKLTRDWKKYVTNGLEKFTPQIIDFQSLVRMKSIYSKSNKVISYKDEILPSLIELQSIARSQLYHRFSRSNAIDETEIIKIQSIIRRNAVIEDLYTKLSKVRSNKRRLIELQSIARGGVARTKLCNSVLVTLIYEDGILNQLFAKIRGDNYRKKFNSQKSELLKYEKSSIIPVQTLFRGVLSRYTKEVTLSDIFDQIDSVITLQSVARGKLMRGSIYEFSDYYQKHIKQVVKAQAILQRVFAQNAYKQLITSKNPPLKVIRRFAPLLSNNDRDFQDEMTLSDLKDLIIEKCKANEEYENQIEQLDMKLGLLDKNKISIEEFLKPTKGKTFKPIVENVKNLERLNKSLKKKIELWQTLFYFIQTNPIYLTKLFNSIPYTKNQTKSGQDLFQSVIQLFPVRDSSITYHSREEYFLVKLMIQLMQNDTANSNNLGDITKLHLTNWIDFFTNFNNHTFQRQHLKALLGKFVIRIVDNEQVDFESDPIRIYNQIIDHEMKVYGRSEKSRDISPQAAIQLPEVSNKFVGNLMSLRETCSDLLSMLQKNASGNKALLQIPDHVKLICRQGYLCAQRKFPDKSDQQHLAVAGVIFVKHYLGSILQVPENYGILTGNNDTQKAKSKDNLRYLYRVMLQLFSMKPFNDNFLKPLNEYIMASTDTVKSIISQAIINVGEIETVYELHDYDDLVTHQRPKLTISVNSLIQLEKSILQNVDIITTGNDDQLYKTCVEVEKLLISPQDMLTLTDLSSVTLNLNPTTQEESIVDSKTKTLFTQAKRCLLYIIRVQEEDDSDDLLELLISGIKPSHEQRFKEIVQYEKAEQDISLNNSKSVTANTVNKKKSTRPYSGTSLGDLSNLTYHELKKMCLEIILKLESMGELTRKNSFQTLLNQIAMDIKTKDSQRQCRWQQLQVSQKTIKKLSEKENYLKTQLHNYKKHVESVLLELQSKSKSNDKNWKRRLFNIMVIPVFSKQYFYHRELRKHNRLPKFGSYKYSAKKLIDQKVLIDFSTANNVATASKLDFMFSCHQVGKFTIEVASGTVNIPGATNTITLDELLALQYENKTKFELFDGMATFDSNNFMGLIFRKFYDLKKE
B2: Ras GTPase-activating-like protein IQG1 (Candida albicans (strain SC5314 / ATCC MYA-2876)), Q5AH02 (parent)
chain: B1 chain
partner: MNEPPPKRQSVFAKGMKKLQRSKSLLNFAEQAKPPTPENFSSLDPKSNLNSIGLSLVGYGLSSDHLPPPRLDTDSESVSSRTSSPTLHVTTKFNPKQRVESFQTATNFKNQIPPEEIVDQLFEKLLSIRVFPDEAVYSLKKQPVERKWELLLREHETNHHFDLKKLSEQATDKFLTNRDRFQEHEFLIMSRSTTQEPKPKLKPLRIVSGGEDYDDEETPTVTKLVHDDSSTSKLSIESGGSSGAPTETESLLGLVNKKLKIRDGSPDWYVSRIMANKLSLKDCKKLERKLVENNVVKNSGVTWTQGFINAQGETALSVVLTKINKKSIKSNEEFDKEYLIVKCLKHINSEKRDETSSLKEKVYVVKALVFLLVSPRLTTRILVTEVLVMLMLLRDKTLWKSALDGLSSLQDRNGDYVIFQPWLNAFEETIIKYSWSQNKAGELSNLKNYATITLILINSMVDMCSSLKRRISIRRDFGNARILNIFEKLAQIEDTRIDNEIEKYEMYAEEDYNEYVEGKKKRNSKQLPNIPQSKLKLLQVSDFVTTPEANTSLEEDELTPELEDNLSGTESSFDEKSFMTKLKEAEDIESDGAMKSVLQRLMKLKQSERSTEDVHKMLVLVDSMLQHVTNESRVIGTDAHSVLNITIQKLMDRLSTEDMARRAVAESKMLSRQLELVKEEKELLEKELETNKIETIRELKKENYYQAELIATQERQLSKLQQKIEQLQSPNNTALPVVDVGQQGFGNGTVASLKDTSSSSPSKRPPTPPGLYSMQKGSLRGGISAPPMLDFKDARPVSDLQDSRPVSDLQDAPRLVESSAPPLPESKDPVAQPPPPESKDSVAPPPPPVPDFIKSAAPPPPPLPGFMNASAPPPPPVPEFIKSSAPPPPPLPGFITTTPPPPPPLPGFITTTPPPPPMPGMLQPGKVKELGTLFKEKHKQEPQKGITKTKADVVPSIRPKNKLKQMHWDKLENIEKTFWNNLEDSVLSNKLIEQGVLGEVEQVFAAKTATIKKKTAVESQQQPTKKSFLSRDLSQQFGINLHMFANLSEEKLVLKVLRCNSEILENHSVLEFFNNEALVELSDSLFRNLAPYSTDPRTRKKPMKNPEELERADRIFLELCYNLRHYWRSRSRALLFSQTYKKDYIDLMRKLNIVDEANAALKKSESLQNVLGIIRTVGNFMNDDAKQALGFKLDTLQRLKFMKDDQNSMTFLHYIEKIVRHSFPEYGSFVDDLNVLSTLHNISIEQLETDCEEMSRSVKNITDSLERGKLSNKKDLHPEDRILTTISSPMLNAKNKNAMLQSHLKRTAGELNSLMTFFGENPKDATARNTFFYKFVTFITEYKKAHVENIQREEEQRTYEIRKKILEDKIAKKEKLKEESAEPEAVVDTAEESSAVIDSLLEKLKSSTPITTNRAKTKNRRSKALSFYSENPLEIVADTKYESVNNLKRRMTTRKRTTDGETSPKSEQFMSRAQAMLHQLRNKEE

The variants in one assay derive from B1. As to conditions: with bni1_canal BNI1, Q5AL52.
bni1_canal BNI1, Q5AL52, sequence (Q5AL52 whole entry): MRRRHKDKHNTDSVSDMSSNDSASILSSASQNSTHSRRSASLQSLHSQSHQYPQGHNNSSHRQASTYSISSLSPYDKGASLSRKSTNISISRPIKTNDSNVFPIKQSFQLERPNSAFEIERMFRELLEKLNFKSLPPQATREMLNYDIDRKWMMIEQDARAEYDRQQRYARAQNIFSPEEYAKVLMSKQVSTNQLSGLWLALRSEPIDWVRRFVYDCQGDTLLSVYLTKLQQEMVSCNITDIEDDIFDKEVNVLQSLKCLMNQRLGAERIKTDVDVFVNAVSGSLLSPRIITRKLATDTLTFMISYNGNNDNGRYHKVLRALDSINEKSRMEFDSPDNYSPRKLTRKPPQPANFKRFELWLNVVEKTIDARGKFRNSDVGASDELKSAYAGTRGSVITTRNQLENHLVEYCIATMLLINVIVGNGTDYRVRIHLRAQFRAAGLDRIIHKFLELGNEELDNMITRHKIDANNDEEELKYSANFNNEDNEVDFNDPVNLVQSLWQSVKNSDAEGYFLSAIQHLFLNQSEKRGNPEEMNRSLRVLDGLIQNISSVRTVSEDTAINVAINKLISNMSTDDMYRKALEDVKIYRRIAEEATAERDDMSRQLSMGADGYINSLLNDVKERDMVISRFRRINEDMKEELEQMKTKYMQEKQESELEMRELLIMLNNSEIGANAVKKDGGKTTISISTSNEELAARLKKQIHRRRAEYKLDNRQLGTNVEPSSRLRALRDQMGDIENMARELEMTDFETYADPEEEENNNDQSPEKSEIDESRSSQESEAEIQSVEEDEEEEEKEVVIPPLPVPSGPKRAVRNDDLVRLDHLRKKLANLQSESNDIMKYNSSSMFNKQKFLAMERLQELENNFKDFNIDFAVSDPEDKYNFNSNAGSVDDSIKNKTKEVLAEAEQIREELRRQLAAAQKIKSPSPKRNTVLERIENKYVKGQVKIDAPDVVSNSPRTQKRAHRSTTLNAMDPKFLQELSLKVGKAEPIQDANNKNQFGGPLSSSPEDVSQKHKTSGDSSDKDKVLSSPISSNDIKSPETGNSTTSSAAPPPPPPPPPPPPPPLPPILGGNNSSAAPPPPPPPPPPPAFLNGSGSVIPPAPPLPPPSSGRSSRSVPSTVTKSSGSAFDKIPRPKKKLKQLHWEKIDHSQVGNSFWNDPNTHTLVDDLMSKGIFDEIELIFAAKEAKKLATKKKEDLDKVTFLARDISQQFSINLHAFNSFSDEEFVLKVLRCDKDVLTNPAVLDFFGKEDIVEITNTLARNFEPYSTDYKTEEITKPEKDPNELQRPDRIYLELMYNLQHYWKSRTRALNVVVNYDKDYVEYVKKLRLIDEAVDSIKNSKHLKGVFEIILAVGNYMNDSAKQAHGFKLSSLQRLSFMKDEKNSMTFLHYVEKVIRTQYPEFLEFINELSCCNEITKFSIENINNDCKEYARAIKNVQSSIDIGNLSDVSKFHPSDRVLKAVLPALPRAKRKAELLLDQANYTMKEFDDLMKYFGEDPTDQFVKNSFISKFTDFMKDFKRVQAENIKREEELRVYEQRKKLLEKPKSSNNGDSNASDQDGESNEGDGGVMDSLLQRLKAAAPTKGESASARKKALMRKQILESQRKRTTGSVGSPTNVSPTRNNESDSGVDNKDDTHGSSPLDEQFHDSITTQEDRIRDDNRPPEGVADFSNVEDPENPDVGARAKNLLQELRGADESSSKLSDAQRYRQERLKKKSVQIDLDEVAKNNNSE
For the variant E15A, the “effect of a mutation on the interaction” value is given as “disrupting interaction”.

In a further assay the parent is B2. As to conditions: with bnr1_canal BNR1, Q5AAF4.
Turning to E15A, the “effect of a mutation on the interaction” value is on record as “disrupting interaction”.
